Measurements: PMC5560056 (Molecular cell, 2016)
Numbering of substitutions follows the chain as printed. Read-outs that look alike come from different tables or passages of the source.

Legend:
[1] = biological target: T1, recombinant human Pds5B_(1–1120) (human, UniProt Q9NTI5 1-1120); test: pull-down
T1 sequence (looked up): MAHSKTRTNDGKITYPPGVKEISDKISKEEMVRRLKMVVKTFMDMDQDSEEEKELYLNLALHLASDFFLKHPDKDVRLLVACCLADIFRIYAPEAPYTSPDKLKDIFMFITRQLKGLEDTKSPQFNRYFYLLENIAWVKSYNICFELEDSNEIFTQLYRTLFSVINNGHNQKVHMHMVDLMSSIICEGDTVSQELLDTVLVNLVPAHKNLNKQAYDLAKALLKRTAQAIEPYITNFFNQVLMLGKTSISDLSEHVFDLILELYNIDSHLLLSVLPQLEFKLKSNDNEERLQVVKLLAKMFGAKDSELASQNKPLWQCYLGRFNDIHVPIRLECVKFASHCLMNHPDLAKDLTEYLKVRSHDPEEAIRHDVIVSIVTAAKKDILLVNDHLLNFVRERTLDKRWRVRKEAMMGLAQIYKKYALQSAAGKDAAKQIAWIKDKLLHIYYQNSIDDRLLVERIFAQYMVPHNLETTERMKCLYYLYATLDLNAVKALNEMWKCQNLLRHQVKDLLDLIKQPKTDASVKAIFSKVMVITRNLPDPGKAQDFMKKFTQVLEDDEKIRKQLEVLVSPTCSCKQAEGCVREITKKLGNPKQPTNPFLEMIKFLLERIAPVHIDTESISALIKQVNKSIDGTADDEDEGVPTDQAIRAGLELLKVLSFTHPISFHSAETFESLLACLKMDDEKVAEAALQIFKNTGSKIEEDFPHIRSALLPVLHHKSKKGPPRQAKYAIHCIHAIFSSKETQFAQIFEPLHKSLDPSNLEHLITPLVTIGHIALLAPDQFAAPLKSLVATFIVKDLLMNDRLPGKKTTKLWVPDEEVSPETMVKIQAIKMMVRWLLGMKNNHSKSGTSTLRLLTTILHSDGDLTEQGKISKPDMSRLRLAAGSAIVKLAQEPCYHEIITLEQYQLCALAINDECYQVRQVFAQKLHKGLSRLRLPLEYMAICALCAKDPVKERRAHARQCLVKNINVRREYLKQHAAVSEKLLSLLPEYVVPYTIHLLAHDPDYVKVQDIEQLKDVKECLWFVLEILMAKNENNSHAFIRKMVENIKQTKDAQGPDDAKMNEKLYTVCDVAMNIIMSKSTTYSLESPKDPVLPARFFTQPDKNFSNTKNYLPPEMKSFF

[2] = biological target: T2, recombinant human Pds5B_(21–1120) (human, UniProt Q9NTI5 21-1120); test: ITC
T2 sequence (looked up): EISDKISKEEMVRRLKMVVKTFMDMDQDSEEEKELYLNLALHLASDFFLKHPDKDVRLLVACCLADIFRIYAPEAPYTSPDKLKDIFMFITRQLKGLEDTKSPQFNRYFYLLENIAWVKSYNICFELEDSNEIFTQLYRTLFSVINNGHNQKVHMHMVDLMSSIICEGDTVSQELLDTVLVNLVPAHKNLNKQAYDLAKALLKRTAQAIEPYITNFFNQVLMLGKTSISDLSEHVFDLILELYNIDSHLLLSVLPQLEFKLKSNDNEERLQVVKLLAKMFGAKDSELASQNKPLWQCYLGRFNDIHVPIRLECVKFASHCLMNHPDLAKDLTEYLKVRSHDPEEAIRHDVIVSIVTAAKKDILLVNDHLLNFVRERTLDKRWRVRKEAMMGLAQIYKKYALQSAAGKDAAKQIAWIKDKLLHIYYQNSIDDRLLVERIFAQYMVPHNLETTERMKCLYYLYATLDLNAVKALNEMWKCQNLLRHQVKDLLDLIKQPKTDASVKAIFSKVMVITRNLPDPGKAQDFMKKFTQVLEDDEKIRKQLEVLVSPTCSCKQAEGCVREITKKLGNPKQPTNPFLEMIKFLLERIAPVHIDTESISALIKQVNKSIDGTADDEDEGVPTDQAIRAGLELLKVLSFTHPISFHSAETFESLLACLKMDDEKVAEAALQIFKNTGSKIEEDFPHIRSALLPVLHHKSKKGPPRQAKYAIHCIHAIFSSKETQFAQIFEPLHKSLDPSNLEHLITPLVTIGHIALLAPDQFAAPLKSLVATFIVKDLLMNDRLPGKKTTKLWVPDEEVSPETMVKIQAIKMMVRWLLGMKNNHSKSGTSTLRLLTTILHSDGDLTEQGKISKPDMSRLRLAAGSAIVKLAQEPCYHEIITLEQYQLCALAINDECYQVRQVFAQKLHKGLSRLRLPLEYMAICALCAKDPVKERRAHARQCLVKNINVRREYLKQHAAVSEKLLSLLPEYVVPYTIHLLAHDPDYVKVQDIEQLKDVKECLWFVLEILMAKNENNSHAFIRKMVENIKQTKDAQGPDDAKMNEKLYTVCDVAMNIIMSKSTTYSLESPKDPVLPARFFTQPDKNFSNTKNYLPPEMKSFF

[3] = biological target: T3, recombinant human Pds5B_(21–1120) Y445A/N447A (human, UniProt Q9NTI5 21-1120, Y445A | N447A); test: pull-down
T3 sequence (looked up): T2 sequence (looked up) with Y425A, N427A

[4] = biological target: T4, selenomethionine-containing Pds5B_(21–1120) (human, UniProt Q9NTI5 21-1120, selenomethionine-containing); test: crystal structure
T4 sequence (looked up): T2 sequence (looked up)

[5] = biological target: T1, recombinant human Pds5B_(1–1120); test: pull-down; remark: listed apart in the source

LDARDLEMSKKVRRSYSRLETLGSASTSTPGRRSCFGFEGL (domain or fragment, human, UniProt Q96FF9 131-171, looked up) [Sororin residues 131–171]
binding result [1]: binds

B1: recombinant purified Scc1_(76–150) (domain or fragment, human, UniProt O60216 76-150, looked up)
chain: ADCNEAFIKIKMAFRPGVVDLPEENREAAYNAITLPEEFHDFDQPLPDLDDIDVAQQFSLNQSRVEEITMREEVG
Kd [2]: 4.3 nM

B2: GST-Scc1_(76–150) (domain or fragment, human, UniProt O60216 76-150, looked up)
chain: B1 chain
binding result [3]: binds

MTSRFGKTYSRKGGNGSSKFDEVFSNKRTTLST (peptide, UniProt Q7Z5K2 1-33, looked up) [synthetic Wapl_(1–33) peptide]
binding result [4]: binds

DARDLEMSKKVRRSYSRLETLGSASTSTPGRRSCFGFEGL (peptide, UniProt Q96FF9 132-171, looked up) [synthetic Sororin peptide (residues 132–171)]
binding result [5]: binds
